Here are results for two molecules from paper PMC8668096, “Investigating the role of the carbon storage regulator A (CsrA) in Leptospira spp”.

For data set [1], the target named is T1, rCsrA L. biflexa (Leptospira biflexa serovar Patoc, UniProt B0SQM8 1-79).
T1 sequence: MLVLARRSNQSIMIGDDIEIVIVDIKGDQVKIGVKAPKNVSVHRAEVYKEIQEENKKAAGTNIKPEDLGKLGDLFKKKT
Put plainly: EMSA; no interaction, 100-800 nM rCsrA, 1 nM RNA; 10 mM HEPES pH 7.3, 20 mM KCl, 1 mM MgCl2, 1 mM DTT (plus 10 mM DTT), 7.5% glycerol, 0.2 ug/uL yeast tRNA, 37 C 30 min; 10% native PAGE. Conditions: protein: recombinant; tags: N-terminal 6xHis (pRSET-C); chain copies: 2; label: 5' biotin. (In EMSA bound probe runs differently from free probe, usually more slowly.)

Data set [2] addresses T1, rCsrA L. biflexa. The data set is described as follows: EMSA; dose-dependent, 100-800 nM rCsrA, 1 nM RNA; 10 mM HEPES pH 7.3, 20 mM KCl, 1 mM MgCl2, 1 mM DTT (plus 10 mM DTT), 7.5% glycerol, 0.2 ug/uL yeast tRNA, 37 C 30 min; 10% native PAGE. Particulars: protein: recombinant; tags: N-terminal 6xHis (pRSET-C); chain copies: 2; label: 5' biotin; hairpin (predicted, GGA-containing hexaloop).

With UGGACACACAAAAGGGUGUGAC (structured_RNA) [LEPBIa_1872 Mut (GGA to AAA)], the binding result with rCsrA L. biflexa [1] is reported as “no binding”. Turning to UGGACACACAGGAGGGUGUGAC (structured_RNA) [LEPBIa_1872 WT (flaB3 upstream)], the binding result with rCsrA L. biflexa [2] is “binds”.
